Data on 24 sequences can be found in the supplement of paper PMC9732359.

± gives the uncertainty stated by the source.

This data set can be described thus: protein stability index of a GFP-peptide fusion (yeast GPS) (PSI 1-4); higher = more stable; sorted into four equal gates, so the index is relative within each strain. In a few lines: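 Tiled 17-residue yeast protein peptides were fused downstream of GFP in a plasmid that also expresses Cherry, and the pooled library was carried in yeast. Mid-log cultures in leucine-free medium were sorted into four equal gates by GFP/Cherry fluorescence ratio, and plasmids from each gate were PCR-amplified and Illumina-sequenced, with reads assigned to strains by barcodes. The protein stability index for each peptide was each gate's read frequency times its gate number, summed.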

On to TSLATSAGQPNLLLSAS [ASC1], for which the protein stability index runs as follows: (doa10∆) 2.03 ± 0.06; (pdr5∆) 1.93 ± 0.06; (san1∆) 2.03 ± 0.062; (ubr1∆) 1.99 ± 0.049.
The sequence DNDTVVTNDDKSDDDDH [SRB8] showed a protein stability index (pdr5∆) of 2.88 ± 0.15, a protein stability index (san1∆) of 3.24 ± 0.26 and a protein stability index (ubr1∆) of 3.19 ± 0.11.
For QKKATMSAEEALVYSYI [RPC34], the protein stability index was 1.43 ± 0.14 (doa10∆), 1.08 ± 0.099 (pdr5∆) and 1.36 ± 0.22 (ubr1∆).
On to DHILFTKTFIFIYKKVL [SRB8], for which the protein stability index was found to be 1.49 ± 0.091 (doa10∆), 1.14 ± 0.14 (pdr5∆), 1.15 ± 0.13 (san1∆) and 1.11 ± 0.044 (ubr1∆).
For the sequence SGITGECLQAYIFFGPI [RET1], the protein stability index runs as follows: (doa10∆) 2.6 ± 0.059; (pdr5∆) 2.72 ± 0.064; (san1∆) 2.64 ± 0.076; (ubr1∆) 2.79 ± 0.051.
For the sequence LLQSSIINKLIHIQSKE [POP3], the protein stability index amounted to 2.49 ± 0.069 (doa10∆), 2.5 ± 0.044 (pdr5∆), 1.91 ± 0.058 (san1∆) and 2.28 ± 0.048 (ubr1∆).
Turning to EQLKEQMEDMEESINEF [SMC4], the protein stability index was determined as 3.17 ± 0.21 (doa10∆), 3.2 ± 0.1 (pdr5∆) and 3.17 ± 0.048 (san1∆).
The corresponding values for RVIIQELRFPSPTPIQR [PRP28] are 2.57 ± 0.15, 2.58 ± 0.15 and 2.41 ± 0.14.
VLAKRMANLSQIYTQRA [SCL1] showed a protein stability index (doa10∆) of 2.52 ± 0.12, a protein stability index (pdr5∆) of 3 ± 0.27, a protein stability index (san1∆) of 2.34 ± 0.12 and a protein stability index (ubr1∆) of 2.69 ± 0.091.
Sequence VREHYLRSDIPCLSRSC [DIS3] displayed a protein stability index (doa10∆) of 2.6 ± 0.051, a protein stability index (pdr5∆) of 2.72 ± 0.051, a protein stability index (san1∆) of 2.59 ± 0.051 and a protein stability index (ubr1∆) of 2.44 ± 0.033.
The corresponding values for EDHDVHSNESSNETIGE [IRR1] are 3 ± 0.079, 3.2 ± 0.086, 3.28 ± 0.058 and 3.06 ± 0.075.
The corresponding values for LKTADNRDRSFQLLEPL [PGD1] are 3.29 ± 0.058, 3.38 ± 0.086, 3.38 ± 0.039 and 3.18 ± 0.074.
For WLEEYHPKLIKNKSGKI [FAS1], the protein stability index runs as follows: (doa10∆) 1.59 ± 0.12; (pdr5∆) 1.83 ± 0.075; (san1∆) 1.42 ± 0.092; (ubr1∆) 1.67 ± 0.046.
The corresponding values for TEVERAKSLLKLQLGQL [COR1] are 1.42 ± 0.042, 1.31 ± 0.048, 1.36 ± 0.065 and 1.37 ± 0.037.
In the case of RTIGIAVDHRRQNRNQE [RPL13A], the protein stability index amounted to 2.65 ± 0.18 (doa10∆), 2.7 ± 0.13 (pdr5∆), 3.14 ± 0.16 (san1∆) and 2.86 ± 0.22 (ubr1∆).
As for ARVKAFDRHCNMVLENV [SMD2], the protein stability index (doa10∆) is 1.53 ± 0.091, the protein stability index (pdr5∆) was determined as 2.3 ± 0.087, the protein stability index (san1∆) is 1.39 ± 0.21 and the protein stability index (ubr1∆) came to 1.87 ± 0.085.
The corresponding values for KERSIVVGRTTRSNPPF [REC8] are 2.7 ± 0.055, 2.7 ± 0.057, 2.57 ± 0.081 and 2.65 ± 0.065.
The matching figures for KIPAVEYFGGESPVDVQ [FAS1]: 2.97 ± 0.13, 3.4 ± 0.099, 3.19 ± 0.1 and 3.09 ± 0.092.
The corresponding values for MSEEGPQVKIREASKDN [RPB3] are 3.18 ± 0.13, 2.44 ± 0.039, 2.94 ± 0.096 and 3.08 ± 0.083.
Take ISELPPQIRQEIEQLDQ [YGL172W/NUP49]: the protein stability index was determined as 2.98 ± 0.084 (doa10∆), 3.06 ± 0.061 (pdr5∆), 2.65 ± 0.088 (san1∆) and 3.06 ± 0.049 (ubr1∆).
The matching figures for ETANVASLNLLQLAPGA [RPL4A]: 2.84 ± 0.14, 3.02 ± 0.18, 3.29 ± 0.078 and 3.27 ± 0.11.
The matching figures for DSIASVLSPDSNIMSDS [GAL11]: 2.74 ± 0.1, 2.98 ± 0.073, 3.03 ± 0.064 and 3.09 ± 0.099.
In turn, LRRVNARYVIATSTKVS [RPL6A] registered a protein stability index (doa10∆) of 1.45 ± 0.058, a protein stability index (pdr5∆) of 1.34 ± 0.047, a protein stability index (san1∆) of 1.25 ± 0.095 and a protein stability index (ubr1∆) of 1.14 ± 0.035.
The matching figures for NSVRNSLLLAHFFSKSC [NUT1]: 1.74 ± 0.05, 1.28 ± 0.041, 1.19 ± 0.078 and 1.18 ± 0.035.
